Experiments:
[1] = molecular target: invertase activity in the soluble fraction of a leaf extract of a wild type plant; experiment: cell-based or functional assay
[2] = molecular target: invertase activity in the cell wall fraction of wild type tobacco leaves; experiment: cell-based or functional assay

invertase activity in mixed-extract assay, percent of the added value of the extracts incubated separately (5 mM sucrose, pH 4.5) [1] [%] | invertase activity in mixed-extract assay, percent of the added value (1 mM sucrose; concentrated cell wall fraction of transgenic leaves) [2] [%] | invertase activity in mixed-extract assay, percent of the added value (5 mM sucrose; concentrated cell wall fraction of infiltrated transgenic leaves) [2] [%] | Substance
86 |  |  | Arabidopsis thaliana cell wall invertase inhibitor AtC/VIF2 (At5g46940)
79 |  |  | Arabidopsis thaliana vacuolar invertase inhibitor AtC/VIF1 (At1g47960) (from UniProt F4HWQ8 24-205)
 | 58 | 70 | tobacco apoplasmic invertase inhibitor (Greiner et al., 1998)

From US20090293142A1
